Protein stability index data for 72 sequences are collected here from the supplement of paper PMC10567573.

A short description of this data set: protein stability index of a GFP-peptide fusion (GPS, HEK-293T) (PSI 1-6); higher = more stable.
Setting [1] is: treatment: DMSO, c terminus: a fixed tail appended.
[2] abbreviates: treatment: MLN4924 1 uM, 8 h, c terminus: a fixed tail appended.

± gives the standard deviation.
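Also: 24-mer peptide tiles fused after GFP, lentivirally expressed, FACS-sorted into six equal bins by GFP/DsRed ratio, decoded by Illumina sequencing, PSI is the read-weighted mean bin number.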

Take QEYNIPGVIQSVIGWKTVRMYPFQ [CDS2]: the protein stability index runs as follows: under setting [1], 2.45 ± 0.67; under setting [2], 2.42 ± 0.3.

QFAISRELIRNIYNSFHKLRDRAE [SNX8]: the protein stability index runs as follows: under setting [1], 2.19 ± 0.13; under setting [2], 2.23 ± 0.21.

Consider QGDSSQQSLKGHLRNNFQKQLLSN [ZC2HC1C], for which the protein stability index reads like this: under setting [1], 3.31 ± 0.27; under setting [2], 3.88 ± 0.16.

Take QGELADQDVDPVHNLIEQVSLGLG [FBXO33]: the protein stability index turned out to be 4.55 ± 0.27 under setting [1] and 4.66 ± 0.072 under setting [2].

Take QHHEALSLFCYEDQEAVCLICAIS [TRIM39]: the protein stability index by setting is: under setting [1], 2.26 ± 0.23; under setting [2], 2.35 ± 0.18.

In the case of QIGFSVGLGNIWRFPYLCQKNGGG [SLC6A17], the protein stability index is, setting by setting: under setting [1], 2.02 ± 0.37; under setting [2], 1.9 ± 0.33.

On to QILGQTLKASMRELGLLIFFLFIG [KCNA1], for which the protein stability index is 2.67 ± 0.67 under setting [1] and 2.45 ± 0.51 under setting [2].

Sequence QISMELAKVNYVKNNICFMSHHQE [SLC2A12] yielded a protein stability index under setting [1] of 2.6 ± 0.16 and a protein stability index under setting [2] of 2.41 ± 0.27.

With QKEDVKPYQVNGVNPAYPESRYTS [ETS1], the protein stability index is, setting by setting: under setting [1], 4.53 ± 0.18; under setting [2], 4.48 ± 0.15.

With QLSRLNITYPMLFKLTNKNSDRMT [UFD1], the protein stability index stood at 2.33 ± 0.14 under setting [1] and 2.58 ± 0.42 under setting [2].

For the sequence QMGVSAKRRPKAQPTTLVLPPQYV [MED27], the protein stability index by setting is: under setting [1], 2.99 ± 0.19; under setting [2], 3.1 ± 0.19.

On to QNCTDEGEREAIQKSVTRSCLLEE [POP5], for which the protein stability index reads like this: under setting [1], 5.17 ± 0.3; under setting [2], 5.3 ± 0.33.

As to QNFKNRESYPEDTVFYIPEDHKPG [DLC1], the protein stability index is, setting by setting: under setting [1], 4.63 ± 0.087; under setting [2], 4.53 ± 0.44.

With QNINAPAPATTSSWEVVRNPLIAS [C22orf31], the protein stability index runs as follows: under setting [1], 3.65 ± 0.32; under setting [2], 3.7 ± 0.16.

Regarding QNPGKFDELDMSPGDPKWLDVIER [TBC1D10A], the protein stability index was determined as 4.27 ± 0.081 under setting [1] and 4.49 ± 0.28 under setting [2].

As to QNQHHSASLQASIFSGAASLGYGT [APBB1IP], the protein stability index reads like this: under setting [1], 3.19 ± 0.16; under setting [2], 3.15 ± 0.17.

Take QPLRPWAGGDVPHKTHQAPASASS [DYRK1B]: the protein stability index runs as follows: under setting [1], 4.54 ± 0.17; under setting [2], 4.58 ± 0.26.

As to QPVVDTFDIRILMAKSVKYTVNFL [CARM1], the protein stability index was determined as 2.79 ± 0.7 under setting [1] and 2.62 ± 0.56 under setting [2].

QQFQPAGTDQVCVLEWGAEGVAGK [FCHSD1]: the protein stability index runs as follows: under setting [1], 4.46 ± 0.24; under setting [2], 4.64 ± 0.23.

As for QRILRIMCRLEELGLAGRCLTLTP [HDAC6], the protein stability index is, setting by setting: under setting [1], 2.39 ± 0.44; under setting [2], 2.34 ± 0.39.

Consider QRQKYLSLQQMQELSNILNLSYKQ [NANOGP8], for which the protein stability index is 2.57 ± 0.29 under setting [1] and 2.69 ± 0.15 under setting [2].

Take QRRHGWNPKDCSENIEVKEGGLYF [SPSB2]: the protein stability index runs as follows: under setting [1], 3.45 ± 0.31; under setting [2], 3.76 ± 0.46.

As for QRVVYLEGCGPPLRRWLRANLAAS [TSPAN10], the protein stability index amounted to 2.26 ± 0.33 under setting [1] and 2.11 ± 0.24 under setting [2].

Take QRYILYWRKRFTEQPITDFCSVIR [ZNF277]: the protein stability index under setting [1] is 1.93 ± 0.23 and the protein stability index under setting [2] was 2.24 ± 0.26.

Consider QSSGLIRHQRIHTGERPYECNECG [ZSCAN9], for which the protein stability index is, setting by setting: under setting [1], 4.03 ± 0.36; under setting [2], 4 ± 0.49.

On to QTGGDVNVEMDAAPGVDLSRILNE [KRT16], for which the protein stability index runs as follows: under setting [1], 4.97 ± 0.31; under setting [2], 5.18 ± 0.085.

QVKLYDIEQQQIRNALENIRKEMK [CRYL1] came in with a protein stability index under setting [1] of 3.14 ± 0.65 and a protein stability index under setting [2] of 3.47 ± 0.29.

With QVKSRQNKTNKNSVSSCDQEHQSA [SMOC2], the protein stability index worked out at 5.1 ± 0.32 under setting [1] and 5.34 ± 0.16 under setting [2].

Take RAALISRRHLQFWKSHLRNVQRPL [RHOBTB2]: the protein stability index reads like this: under setting [1], 2.56 ± 0.13; under setting [2], 2.56 ± 0.22.

As for RAALTYTSLEITILTSQPGKEVVK [M1AP], the protein stability index is, setting by setting: under setting [1], 2.32 ± 0.19; under setting [2], 2.49 ± 0.34.

Regarding RAIMAHMTVEEIYKDRQKFSEQVF [FLOT1], the protein stability index by setting is: under setting [1], 2.52 ± 0.32; under setting [2], 2.74 ± 0.3.

Turning to RAVLGGLSQTDPRAGGGGGGDYGL [PPTC7], the protein stability index reads like this: under setting [1], 4.01 ± 0.84; under setting [2], 3.85 ± 1.5.

As to RCFWLGMEGLETAEGSNSESSDDD [SDE2], the protein stability index was found to be 5.22 ± 0.42 under setting [1] and 5.09 ± 0.3 under setting [2].

On to RDRDGRITVAELREAVPALLGEPL [CABP4], for which the protein stability index under setting [1] stood at 3.78 ± 0.23 and the protein stability index under setting [2] came to 3.95 ± 0.35.

Turning to REAATKHSKASLPTGEGSISHEEQ [CHCHD6], the protein stability index was 5.3 ± 0.24 under setting [1] and 5.34 ± 0.3 under setting [2].

For RELNDRLAVYIDKVRSLETENSAL [LMNB1], the protein stability index was found to be 3.33 ± 0.24 under setting [1] and 3.04 ± 0.34 under setting [2].

REQLQAEASERFAAGYIQCMHEVH [HES6] displayed a protein stability index under setting [1] of 3.62 ± 0.37 and a protein stability index under setting [2] of 3.77 ± 0.22.

RERADIGGLMARPEYREWNPELIK [FAM107A]: the protein stability index under setting [1] was found to be 4.16 ± 0.12 and the protein stability index under setting [2] was 3.8 ± 0.18.

As for RESRILFSTWNLDHIIEKKRTIIP [DFFB], the protein stability index runs as follows: under setting [1], 2.35 ± 0.22; under setting [2], 2.52 ± 0.22.

For the sequence REVDLNGDGTVDFDEFVMMLSRH [CABP4], the protein stability index turned out to be 4 ± 0.17 (treatment: DMSO, c terminus: native) and 4.23 ± 0.28 (treatment: MLN4924 1 uM, 8 h, c terminus: native).

On to REVEQWFATQTEELNKQVVSSSEQ [KRT33B], for which the protein stability index was 4.98 ± 0.23 under setting [1] and 4.87 ± 0.17 under setting [2].

With REWRCCPGHSGVSCEEVAASSASL [EMID1], the protein stability index runs as follows: under setting [1], 3.74 ± 0.089; under setting [2], 3.55 ± 0.31.

For RFNKLGLDHLSLGEEPVPHQQVEE [NEK8], the protein stability index under setting [1] was determined as 4.91 ± 0.22 and the protein stability index under setting [2] stood at 4.89 ± 0.26.

Consider RGLRYYYDKNIIHKTAGKRYVYRF [ETS1], for which the protein stability index reads like this: under setting [1], 2.32 ± 0.2; under setting [2], 2.46 ± 0.18.

With RGQEPARADQLCQQELRELRRELE [PRPH], the protein stability index by setting is: under setting [1], 4.48 ± 0.36; under setting [2], 4.53 ± 0.5.

With RGRYGPPSRRSENRVVVSGLPPSG [SRSF1], the protein stability index was 4.08 ± 0.14 under setting [1] and 4.16 ± 0.17 under setting [2].

In the case of RGVDVSLQGKDAWLPLHYAAWQGH [RIPK4], the protein stability index under setting [1] worked out at 2.58 ± 0.42 and the protein stability index under setting [2] was 2.45 ± 0.29.

RIKEVEHMTRHLEESEKAMQERVQ [LRRC45]: the protein stability index runs as follows: under setting [1], 5 ± 0.22; under setting [2], 4.99 ± 0.21.

RKDFSELRSAGVEQLMYIKEDLII [FAM50A]: the protein stability index runs as follows: under setting [1], 2.24 ± 0.21; under setting [2], 2.13 ± 0.34.

The sequence RKLFEVESVTHHDYRMELAQAGTP [SPAG8] returned a protein stability index under setting [1] of 3.64 ± 0.33 and a protein stability index under setting [2] of 3.57 ± 0.21.

For RKSVRYTRQKKNLPDSPLRFDGLP [TRIM15], the protein stability index by setting is: under setting [1], 3.59 ± 0.19; under setting [2], 3.66 ± 0.12.

As for RLEAARLSLEEELSRVKAAALSER [LRRC45], the protein stability index stood at 3.71 ± 0.21 under setting [1] and 4.04 ± 0.39 under setting [2].

RLFLDGEEEKEWAFEESKIDEHHF [AASDHPPT]: the protein stability index reads like this: under setting [1], 4.37 ± 0.26; under setting [2], 4.42 ± 0.21.

For RLHNLYSTPRCAQQAALPRLSRRM [CBY2], the protein stability index by setting is: under setting [1], 2.28 ± 0.31; under setting [2], 2.55 ± 0.4.

For the sequence RLKKQLRAAQLQHSEKMAQYLEEE [CCDC6], the protein stability index runs as follows: under setting [1], 4.06 ± 0.29; under setting [2], 4.11 ± 0.26.

As for RLRKCYEVGMVKCGSRRERCGYRL [ESR2], the protein stability index runs as follows: under setting [1], 2.54 ± 0.4; under setting [2], 2.43 ± 0.29.

With RLVKEGRFVPSNPIGILTTSYCEL [PPTC7], the protein stability index under setting [1] was 2.39 ± 0.21 and the protein stability index under setting [2] came out at 2.12 ± 0.47.

Consider RNLLVENIIDIYKQESTRPEKKSD [TRIM55], for which the protein stability index is, setting by setting: under setting [1], 4.42 ± 0.51; under setting [2], 4.73 ± 0.11.

In the case of RNQGNFSVVGTVLAATQAEKAVAN [ZC2HC1C], the protein stability index by setting is: under setting [1], 4.28 ± 0.15; under setting [2], 4.24 ± 0.42.

For RNSGIIGGKYLGRTKVVKPYSTVD [EFHC1], the protein stability index was determined as 2.91 ± 0.26 under setting [1] and 3.46 ± 0.17 under setting [2].

The sequence RPEEEEDELAHRCSSFMAPPVTDL [CPOX] came in with a protein stability index under setting [1] of 5.05 ± 0.26 and a protein stability index under setting [2] of 5.03 ± 0.18.

With RPELPPVCRARPRACSHLIRLMQR [RIPK4], the protein stability index amounted to 2.52 ± 0.26 under setting [1] and 2.49 ± 0.31 under setting [2].

On to RPLQVNTADHRIYSYVVSRPQPRG [FAF2], for which the protein stability index is 3.27 ± 0.43 under setting [1] and 3.49 ± 0.2 under setting [2].

In turn, RQITSPVSGINGDIRAKKIASIAD [HNF4A] yielded a protein stability index under setting [1] of 4.1 ± 0.25 and a protein stability index under setting [2] of 4.13 ± 0.2.

Regarding RQVEKRRNSGPVVEKLKQMQEFFG [MMP1], the protein stability index was 3.04 ± 0.57 under setting [1] and 3.07 ± 0.14 under setting [2].

Take RQVPGSDPACYEFLWGPRALIETS [MAGEA6]: the protein stability index came out at 2.62 ± 0.56 under setting [1] and 2.85 ± 0.35 under setting [2].

Take RRLLEGEDAHLTQYKKEPVTTRQV [KRT17]: the protein stability index amounted to 4.56 ± 0.25 under setting [1] and 4.66 ± 0.18 under setting [2].

In the case of RRSFLIEHQRSHTGERPHQCIECG [ZSCAN9], the protein stability index runs as follows: under setting [1], 3.3 ± 0.39; under setting [2], 3.8 ± 0.35.

RRSIRYGREVELKPYIAAHFDVLP [PTPRD]: the protein stability index came to 2.5 ± 0.41 under setting [1] and 2.46 ± 0.43 under setting [2].

For RSHENKLRQLTAELAEHRCHPVER [PSD2], the protein stability index under setting [1] turned out to be 3.84 ± 0.18 and the protein stability index under setting [2] worked out at 4.02 ± 0.14.

As for RSLLLKYARTPTLDPDTMHARLRL [TRIM14], the protein stability index by setting is: under setting [1], 2.45 ± 0.35; under setting [2], 2.37 ± 0.44.

Consider RTEIISRSWFPSAPGSASSSKVSG [YJU2B], for which the protein stability index by setting is: under setting [1], 3.94 ± 0.13; under setting [2], 3.97 ± 0.15.
